Reference: patent US20150218594A1, “CELL-FREE AND MINIMIZED METABOLIC REACTION CASCADES FOR THE PRODUCTION OF CHEMICALS” (CLARIANT PRODUKTE (DEUTSCHLAND) GMBH, priority 2012, published 2015)
Residue numbers refer to the chain shown, from its start. Names and notes keep the numbering of the source.

B1: S405C: optimized Thermoplasma acidophilum aldehyde dehydrogenase with the mutation of S405C (protein)
chain: MDTKLYIDGQWVNSSSGKTVDKYSPVTGQVIGRFEAATRDDVDRAIDAAEDAFWAWNDLGSVERSKIIYRAKELIEKNRAELENIIMEENGKPVKEAKEEVDGVIDQIQYYAEWARKLNGEVVEGTSSHRKIFQYKVPYGIVVALTPWNFPAGMVARKLAPALLTGNTVVLKPSSDTPGSAEWIVRKFVEAGVPKGVLNFITGRGSEIGDYIVEHKKVNLITMTGSTATGQRIMQKASANMAKLILELGGKAPFMVWKDADMDNALKTLLWAKYWNAGQSCIAAERLYVHEDIYDTFMSRFVELSRKLALGDPKNADMGPLINKGALQATSEIVEEAKESGAKILFGGSQPSLSGPYRNGYFFLPTIIGNADQKSKIFQEEIFAPVIGARKISSVEEMYDLANDCKYGLASYLFTKDPNIIFEASERIRFGELYVNMPGPEASQGYHTGFRMTGQAGEGSKYGISEYLKLKNIYVDYSGKPLHINTVRDDLFQSGRPVLGSSHHHHHH
modifications: TaALDH-S405C-Chis
B2: Y399R: optimized Thermoplasma acidophilum aldehyde dehydrogenase with the mutation of Y399R (protein)
chain: B1 chain with Y399R, C405S
modifications: TaALDH-Y399R-Chis
B3: F34M W271S Y399C S405N: optimized Thermoplasma acidophilum aldehyde dehydrogenase with the mutations F34M, W271S, Y399C and S405N (protein)
chain: B1 chain with F34M, W271S, Y399C, C405N
modifications: TaALDH-F34M-W271S-Y399C-S405N-Chis
B4: F34L: optimized Thermoplasma acidophilum aldehyde dehydrogenase with the mutation of F34L (protein)
chain: B1 chain with F34L, C405S
modifications: taALDH-F34L-Chis
B5: F34M S405N: optimized Thermoplasma acidophilum aldehyde dehydrogenase with the mutations F34M and S405N (protein)
chain: B1 chain with F34M, C405N
modifications: TaALDH-F34M-S405N-Chis
B6: W271S: optimized Thermoplasma acidophilum aldehyde dehydrogenase with the mutation of W271S (protein)
chain: B1 chain with W271S, C405S
modifications: TaALDH-W271S-Chis
B7: F34L S405C: optimized Thermoplasma acidophilum aldehyde dehydrogenase with the mutations F34L and S405C (protein)
chain: B1 chain with F34L
modifications: TaALDH-F34L-S405C-Chis
B8: wildtype (wt): Aldehyde Dehydrogenase ALDH (EC 1.2.1.3), Thermoplasma acidophilum, Seq ID 08, wildtype, non-optimized enzyme (protein)
chain: B1 chain with C405S
modifications: Aldehyde Dehydrogenase (EC 1.2.1.3), Thermoplasma acidophilum, wildtype enzyme Protein sequence including C-terminal His-Tag
B9: F34M W271S S405N: TaALDH variant with the mutations F34M, W271S and S405N; no SEQ ID printed (protein)
chain: B1 chain with F34M, W271S, C405N

Key:
Type in all cases: biochemical
[1] = Activity in solvents of Ta-ALDH variants (3 % isobutanol); details: for 3 % isobutanol, 2 mM NAD (mU/mL): 50° C., pH 7; for 3 % isobutanol, 2 mM NAD (mU/mL) / relative to wt: 3 % isobutanol, 2 mM NAD; for relative to wt: normalized to the wildtype control value; for Stab. rel to wt: stability in 3 % isobutanol relative to wildtype
Protocol: (§1) Colonies of E. coli BL21 (DE3) containing Ta-ALDH library were transferred into 96-deepwell plates (Gainer BioOne) containing Zym5052 autoinduction medium (Protein Expression and Purification, 2005. 41(1): p. 207-234). Cultures were grown over night at 37° C., 1000 rpm. Cells were harvested by centrifugation at 5000 g at 2° C. for 2 min and lysed with B-Per® protein extraction reagent (Thermo Fisher Scentific, Rockford, USA). After incubation for 60 min at 50° C., insoluble cell debris and was removed by centrifugation at 5000 g at 20° C. for 30 min. Supernatants containing variants of TaALDH were tested for relative activity under standard conditions: 2 mM NAD, 1 mM D-glyceraldehyde in 50 mM HEPES (pH 7) at 50° C. After 20 min NADH formation was detected spectrophotometrically at 340 nm.
Activity in solvents of Ta-ALDH variants was tested under standard assay conditions containing additional solvent. After 20 min NADH formation was detected and compared to relative activity.
(§2) The values “relative to wt” are the mU/mL values normalized to the wildtype control value.

[2] = Screening of TaALDH variants, relative activity under standard conditions (2 mM NAD); details: for 2 mM NAD (mU/mL): 1 mM D-glyceraldehyde, 50° C., pH 7, lysate supernatant; for relative to wt: mU/mL values normalized to the wildtype control value
Protocol: as §1, §2

[3] = Cofactor acceptance of Ta-ALDH variants (10 mM NAD); details: for 10 mM NAD (mU/mL): 1 mM D-glyceraldehyde, 50° C., pH 7; for 10 mM NAD (mU/mL) / relative to wt: 10 mM NAD; for relative to wt: normalized to the wildtype control value; for 10 mM NAD /2 mM NAD: ratio of activity at 10 mM NAD to 2 mM NAD
Protocol: as §1
Change in cofactor acceptance of Ta-ALDH variants was tested under standard assay conditions but with 10 mM NAD. After 20 min NADH formation was detected and compared to relative activity.
as §2

[4] = Determination of specific activity of purified TaALDH variants; details: purified enzyme, 1 mM D-Glyceraldehyde, 50° C., pH 7
Source text: The Ta-aldh gene was cloned in pCBR-Chis expression vector as described above. Mutations F34L, F34M, Y399C, S405C and S405N were inserted into Ta-aldh gene by Quickchange PCR as described above. For recombinant expression, E. coli BL21 (DE3) was transformed with pCBR-Ta-aldh-Chis, pCBR-Ta-aldh-f34I-s405c-Chis, pCBR-Ta-aldh-f34m-s405n-Chis or pCBR-Ta-aldh-f34m-y399c-s405n-Chis. Each of the four variants was produced using the following protocol:
Large amounts of a TaALDH-Variant were produced with fed-batch fermentation in a 40 L Biostat Cplus bioreactor (Sartorius Stedim, Goettingen, Germany). Defined media was supplemented with 30 μg/ml kanamycin. After inoculation cells were grown at 30° C. for 24 h and induced with 0.3 mM IPTG. Enzyme expression was performed at 30° C. for 3 h. One fermentation produced 300 g cells (wet weight). Cells were harvested and lysed with Basic-Z Cell Disruptor (Constant Systems, Northants, UK) in loading buffer (200 mM NaCl; 20 mM Imidazol; 2.5 mM MgCl2; 50 mM NaPi, pH 6.2). After heat treatment at 50° C. for 30 min, cell debris and protein aggregates were separated from soluble fraction by centrifugation at 30,000 g at 20° C. for 30 min (Sorvall RC6+, SS-34 rotor, Thermo Scientific).
Soluble fraction of His-tagged TaALDH-Variant was further purified by Ni-NTA chromatography using ÄKTA UPC-900 FPLC-system (GE Healthcare, Freiburg, Germany). Supernatant was loaded on HiTrap FF-column and washed with two column volumes of loading buffer. Highly purified and concentrated TaALDH was fractioned after elution in imidazole buffer (200 mM NaCl; 500 mM imidazol; 50 mM NaPi, pH 6.2). Buffer was changed to 20 mM (NH4)HCO3 with HiPrep 26/10 Desalting column and TaALDH was lyophilized with an Alpha 2-4 LD Plus freeze dryer (Martin Christ GmbH, Osterode am Harz, Germany).
TaALDH activity was determined spectrophotometrically at 50° C. by measuring the rate of cofactor reduction at 340 nm in flat bottom microtiter plates (Grainer BioOne) with a Fluorostar Omega Photometer (BMG Labtech GmbH, Ortenberg, Germany). One unit of activity was defined as reduction of 1 μmol of cofactor per minute.

Molecule	3 % isobutanol, 2 mM NAD (mU/mL) [1] [mU/mL]	relative to wt [1]	Stab. rel to wt [1]	2 mM NAD (mU/mL) [2] [mU/mL]	relative to wt [2]	10 mM NAD (mU/mL) [3] [mU/mL]	relative to wt [3]	10 mM NAD /2 mM NAD [3]	specific activity (U/mg) at 2 mM NAD [4] [U/mg]
B1	12.65	7.9	1.2	19.29	6.7	66.82	5.6	0.8	–
B2	2.16	1.4	1	3.76	1.3	11.56	1.0	0.7	–
B3	1.3	0.8	0.8	3	1.0	8.08	0.7	0.7	–
B4	4.08	2.6	0.8	9.09	3.1	31.72	2.7	0.8	–
B5	15.62	9.8	1.1	25.87	9.0	74.31	6.2	0.7	1.2
B6	20.8	13	0.6	58.35	20.2	181.89	15.3	0.8	–
B7	8.17	5.1	1.0	15.23	5.3	46.83	3.9	0.7	1
B8	1.60	1.0	1.0	2.89	1.0	11.92	1.0	1	0.2
B9	43.86	27.5	0.6	125.38	43.4	279.58	23.5	0.5	–
